Source: paper PMC3987903

Target: GST-LT-Ag (HPD to AAA) mutant (JC virus (JCV)) (UniProt P03072)
Experiment: pull-down

Chain of human heat shock protein Hsp70 (P0DMV8 whole entry): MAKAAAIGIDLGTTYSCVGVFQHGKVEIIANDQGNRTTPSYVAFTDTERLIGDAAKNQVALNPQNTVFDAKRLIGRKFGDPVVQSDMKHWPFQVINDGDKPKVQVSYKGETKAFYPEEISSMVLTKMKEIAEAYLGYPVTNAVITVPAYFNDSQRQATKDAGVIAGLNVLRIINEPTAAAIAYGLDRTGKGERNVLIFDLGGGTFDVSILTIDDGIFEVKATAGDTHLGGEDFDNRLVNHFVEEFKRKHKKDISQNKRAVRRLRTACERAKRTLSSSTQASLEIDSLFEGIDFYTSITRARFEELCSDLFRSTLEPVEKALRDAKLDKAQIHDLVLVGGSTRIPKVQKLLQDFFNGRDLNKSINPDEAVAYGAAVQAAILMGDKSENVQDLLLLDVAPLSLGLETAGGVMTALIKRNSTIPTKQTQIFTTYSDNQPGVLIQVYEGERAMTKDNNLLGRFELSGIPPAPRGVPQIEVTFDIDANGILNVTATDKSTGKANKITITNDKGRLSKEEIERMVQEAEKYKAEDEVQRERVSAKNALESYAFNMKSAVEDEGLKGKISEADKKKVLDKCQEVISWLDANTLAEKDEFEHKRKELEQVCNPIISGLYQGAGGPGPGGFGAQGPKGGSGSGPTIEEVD

**Q.** For “human heat shock protein Hsp70 (from UniProt P0DMV8 1-641) (natural protein)”, which reduction of the interaction against WT is on record?
**A.** The reduction of the interaction against WT was greater than 50%.
